Here are results for 2 substances from patent US6982170.

A value given as a limit tells only on which side of the number the result lay.

The test system of data set [1] is human wild type FGF-1 (fibroblast growth factor-1).
Data set [2] relates to thrombin resistant mutant FGF-1R136K.
For data set [3], the target named is human wild type FGF-1 (fibroblast growth factor-1) (human) (UniProt P05230). Put plainly: cell-based or functional assay.

For thrombin, the “degradation of FGF-1 on Western blot (bands at 17 kD and 14 kD), no heparin” value in data set [1] is “wild-type FGF-1 was degraded by even the lowest concentration of thrombin used (0.5 U/ml)”. In data set [2], the “degradation of FGF-1 on Western blot” value is “FGF-1R136K, even in the absence of heparin, was relatively resistant to thrombin degradation” and the “size of the cleavage band on Western blot” value is listed as “the band detected upon treatment of FGF-1R136K mutant is slightly larger than the degradation band from wild type FGF-1”.

With thrombin (enzyme), the BAEC growth (cell number after 3 days) with thrombin-pretreated growth factor in data set [3] is less than 1 U/ml.
